What all share (settings): glycan lost; control: wild-type SR-F1(20-421)
Data set [1] in a line: Ni-NTA purified yield from 293-F supernatant.
A short description of data set [2]: MALDI-TOF mass, SDS-PAGE, N-terminal sequencing.
Data set [3] is described as follows: limited tryptic and chymotryptic proteolysis, SDS-PAGE.

The values that follow come from PMC7137648.

B1: SR-F1 (SREC-I, SCARF1): N289Q (protein)
parent chain: MGLGLLLPLLLLWTRGTQGSELDPKGQHVCVASSPSAELQCCAGWRQKDQECTIPICEGPDACQKDEVCVKPGLCRCKPGFFGAHCSSRCPGQYWGPDCRESCPCHPHGQCEPATGACQCQADRWGARCEFPCACGPHGRCDPATGVCHCEPGWWSSTCRRPCQCNTAAARCEQATGACVCKPGWWGRRCSFRCNCHGSPCEQDSGRCACRPGWWGPECQQQCECVRGRCSAASGECTCPPGFRGARCELPCPAGSHGVQCAHSCGRCKHNEPCSPDTGSCESCEPGWNGTQCQQPCLPGTFGESCEQQCPHCRHGEACEPDTGHCQRCDPGWLGPRCEDPCPTGTFGEDCGSTCPTCVQGSCDTVTGDCVCSAGYWGPSCNASCPAGFHGNNCSVPCECPEGLCHPVSGSCQPGSGSRDTALIAGSLVPLLLLFLGLACCACCCWAPRSDLKDRPARDGATVSRMKLQVWGTLTSLGSTLPCRSLSSHKLPWVTVSHHDPEVPFNHSFIEPPSAGWATDDSFSSDPESGEADEVPAYCVPPQEGMVPVAQAGSSEASLAAGAFPPPEDASTPFAIPRTSSLARAKRPSVSFAEGTKFAPQSRRSSGELSSPLRKPKRLSRGAQSGPEGREAEESTGPEEAEAPESFPAAASPGDSATGHRRPPLGGRTVAEHVEAIEGSVQESSGPVTTIYMLAGKPRGSEGPVRSVFRHFGSFQKGQAEAKVKRAIPKPPRQALNRKKGSPGLASGSVGQSPNSAPKAGLPGATGPMAVRPEEAVRGLGAGTESSRRAQEPVSGCGSPEQDPQKQAEEERQEEPEYENVVPISRPPEP
Regarding B1, the “expression_or_secretion, other: protein purified per 100 ml supernatant” value (“expression_or_secretion … per 100 ml supernatant” for short) in data set [1] is listed as “decreases, 70 vs 450”. The “other: proteolytic processing” value in data set [2] is “increases, extra loss of 2.3–2.6 kDa compared with the N382Q and N393Q mutants”. In addition, the structure_or_conformation result in data set [3] is given as “no change”.

B2: SR-F1 (SREC-I, SCARF1): N382Q (protein)
parent chain: MGLGLLLPLLLLWTRGTQGSELDPKGQHVCVASSPSAELQCCAGWRQKDQECTIPICEGPDACQKDEVCVKPGLCRCKPGFFGAHCSSRCPGQYWGPDCRESCPCHPHGQCEPATGACQCQADRWGARCEFPCACGPHGRCDPATGVCHCEPGWWSSTCRRPCQCNTAAARCEQATGACVCKPGWWGRRCSFRCNCHGSPCEQDSGRCACRPGWWGPECQQQCECVRGRCSAASGECTCPPGFRGARCELPCPAGSHGVQCAHSCGRCKHNEPCSPDTGSCESCEPGWNGTQCQQPCLPGTFGESCEQQCPHCRHGEACEPDTGHCQRCDPGWLGPRCEDPCPTGTFGEDCGSTCPTCVQGSCDTVTGDCVCSAGYWGPSCNASCPAGFHGNNCSVPCECPEGLCHPVSGSCQPGSGSRDTALIAGSLVPLLLLFLGLACCACCCWAPRSDLKDRPARDGATVSRMKLQVWGTLTSLGSTLPCRSLSSHKLPWVTVSHHDPEVPFNHSFIEPPSAGWATDDSFSSDPESGEADEVPAYCVPPQEGMVPVAQAGSSEASLAAGAFPPPEDASTPFAIPRTSSLARAKRPSVSFAEGTKFAPQSRRSSGELSSPLRKPKRLSRGAQSGPEGREAEESTGPEEAEAPESFPAAASPGDSATGHRRPPLGGRTVAEHVEAIEGSVQESSGPVTTIYMLAGKPRGSEGPVRSVFRHFGSFQKGQAEAKVKRAIPKPPRQALNRKKGSPGLASGSVGQSPNSAPKAGLPGATGPMAVRPEEAVRGLGAGTESSRRAQEPVSGCGSPEQDPQKQAEEERQEEPEYENVVPISRPPEP
For B2, the “expression_or_secretion … per 100 ml supernatant” value in data set [1] is on record as “decreases, 85 vs 450”. The structure_or_conformation entry in data set [3] was “no change”.

B3: SR-F1 (SREC-I, SCARF1): N393Q (protein)
parent chain: MGLGLLLPLLLLWTRGTQGSELDPKGQHVCVASSPSAELQCCAGWRQKDQECTIPICEGPDACQKDEVCVKPGLCRCKPGFFGAHCSSRCPGQYWGPDCRESCPCHPHGQCEPATGACQCQADRWGARCEFPCACGPHGRCDPATGVCHCEPGWWSSTCRRPCQCNTAAARCEQATGACVCKPGWWGRRCSFRCNCHGSPCEQDSGRCACRPGWWGPECQQQCECVRGRCSAASGECTCPPGFRGARCELPCPAGSHGVQCAHSCGRCKHNEPCSPDTGSCESCEPGWNGTQCQQPCLPGTFGESCEQQCPHCRHGEACEPDTGHCQRCDPGWLGPRCEDPCPTGTFGEDCGSTCPTCVQGSCDTVTGDCVCSAGYWGPSCNASCPAGFHGNNCSVPCECPEGLCHPVSGSCQPGSGSRDTALIAGSLVPLLLLFLGLACCACCCWAPRSDLKDRPARDGATVSRMKLQVWGTLTSLGSTLPCRSLSSHKLPWVTVSHHDPEVPFNHSFIEPPSAGWATDDSFSSDPESGEADEVPAYCVPPQEGMVPVAQAGSSEASLAAGAFPPPEDASTPFAIPRTSSLARAKRPSVSFAEGTKFAPQSRRSSGELSSPLRKPKRLSRGAQSGPEGREAEESTGPEEAEAPESFPAAASPGDSATGHRRPPLGGRTVAEHVEAIEGSVQESSGPVTTIYMLAGKPRGSEGPVRSVFRHFGSFQKGQAEAKVKRAIPKPPRQALNRKKGSPGLASGSVGQSPNSAPKAGLPGATGPMAVRPEEAVRGLGAGTESSRRAQEPVSGCGSPEQDPQKQAEEERQEEPEYENVVPISRPPEP
For B3, in data set [1], the “expression_or_secretion … per 100 ml supernatant” value is “decreases, 200 vs 450”. In addition, the structure_or_conformation entry in data set [3] was “no change”.
